Where two headings read alike, the source gives them in different places.
Key:
[1] = biological target: β-S109C/Q299C/R103S-(AF488)2 (E. coli) (UniProt P0A988); test: stopped-flow fluorescence kinetics
β-S109C-AF488 (E. coli) = β-S109C-AF488 (E. coli) (UniProt P0A988); test: stopped-flow fluorescence kinetics
[2] = biological target: β-R103C/I305C-(AF488)2 (E. coli) (UniProt P0A988); test: stopped-flow fluorescence kinetics
[3] = biological target: β-S109C/Q299C/R103S-(AF488)2 (E. coli) (UniProt P0A988); test: other fluorescence titration
[4] = biological target: β-S109C/Q299C-(AF488)2 (E. coli) (UniProt P0A988); test: other fluorescence titration
[5] = biological target: β-S109C/Q299C/R103S-(AF488)2 (E. coli) (UniProt P0A988); test: stopped-flow fluorescence kinetics; remark: listed apart in the source
[6] = biological target: β-S109C/Q299C/R103S-(AF488)2 (E. coli) (UniProt P0A988); test: other fluorescence titration; remark: listed apart in the source
[7] = biological target: β-S109C/Q299C-(AF488)2 (E. coli) (UniProt P0A988); test: other fluorescence titration; remark: listed apart in the source

“E. coli clamp loader, γ complex (γ3δδ’ψχ subunits) (from UniProt P06710-2;P28630;P28631;P28905;P28632)” showed a koff, fast phase (k f) [1] of 0.039 s⁻¹, a koff, slow phase (k s) [1] of 0.0098 s⁻¹ and a maximum observed rate constant, slow phase (clamp opening step) (β-S109C-AF488 (E. coli)) of 8 s⁻¹. For the same substance, the k close (reverse of step 2 of the bind-open-lock model) [2] was 4 s⁻¹, the k open (step 2 of the bind-open-lock model) [2] was 9 s⁻¹ and the koff, fast phase (k f) [2] was 0.058 s⁻¹. For the same substance, the koff, slow phase (k s) [2] was 0.011 s⁻¹, the limiting observed rate constant, rapid phase of opening [2] was 11 s⁻¹ and the limiting observed rate constant, slow phase of opening [2] was 1.5 s⁻¹. It also gave a Kd [3] of 5 nM, a Kd [4] of 5.3 nM and a koff, fast phase (k f) [5] of 0.046 s⁻¹. The koff, slow phase (k s) [5] was 0.012 s⁻¹, the Kd [6] was 4.2 nM and the Kd [7] was 7 nM.

— publication PMC5737080
